Reference: PMC9714666 (Frontiers in Immunology, 2022)

What was measured:
[1] = molecular target: T1, SARS-CoV-2 Omicron (B.1.1.529) RBD, biotinylated (SARS-CoV-2 Omicron B.1.1.529 (BA.1), strain, biotinylated); assay: BLI; conditions: both partners purified
T1 construct: source: bought: ACRObiosystems

[2] = molecular target: T2, SARS-CoV-2 Omicron BA.5 RBD, biotinylated (SARS-CoV-2 Omicron BA.5, strain, biotinylated); assay: BLI; conditions: both partners purified
T2 construct: source: bought: ACRObiosystems

B1: D27LEY (antibody, V domains shown)
VH: QVQLQQSGAEVKKPGSSVKVSCKASGGTFGNWSISWVRQAPGQGLEWMGGIAPGRGEATYAQKFQGRVTITTDESTSTAYMELSSLRSEDTAVYYCARETWYTSGGMDVWGQGTTVTVSS
VL: SYELTQPPSVSVAPGKTARITCGGNNIGRKSVHWYQQKPGQAPVLVVYDDSDRPSGIPERFSGSNSGNTATLTISRVEAGDEADYYCQVYDLWSSDYVFGTGTKVEIK
Kd [1]: 0.34 nM | Kd [2]: 0.37 nM
